In the supplement of paper PMC10567573:

B1: TFE3 (parent)
chain: FPSDHLGDLGDPFHLGLEDILMEE

Variants of: B1
Assay: protein stability index of a GFP-peptide fusion (GPS, HEK-293T) (PSI 1-6); higher = more stable
Details: c terminus: a fixed tail appended
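Also: lentivirally expressed fusions sorted by FACS into six bins by GFP to DsRed ratio, PSI derived from sequencing read proportions per bin multiplied by bin number.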

Variant | protein stability index
FPSDHLGDLGDPFHLGLPDILMEE | 3.07
FPSDHLGDLGDPFHLGLQDILMEE | 2.89
FPSDHLGDLGDPFHLGLRDILMEE | 2.28
FPSDHLGDLGDPFHLGLSDILMEE | 3.51
FPSDHLGDLGDPFHLGLTDILMEE | 2.72
FPSDHLGDLGDPFHLGLVDILMEE | 3.22
FPSDHLGDLGDPFHLGLWDILMEE | 2.65
FPSDHLGDLGDPFHLGLYDILMEE | 2.1
FPSDHLGDLGDPFHLGLEAILMEE | 2.1
FPSDHLGDLGDPFHLGLECILMEE | 2.91
FPSDHLGDLGDPFHLGLEEILMEE | 3.2
FPSDHLGDLGDPFHLGLEFILMEE | 2.09
FPSDHLGDLGDPFHLGLEGILMEE | 3.46
FPSDHLGDLGDPFHLGLEHILMEE | 3.29
FPSDHLGDLGDPFHLGLEIILMEE | 2.92
FPSDHLGDLGDPFHLGLEKILMEE | 3.29
FPSDHLGDLGDPFHLGLELILMEE | 2.03
FPSDHLGDLGDPFHLGLEMILMEE | 2.28
FPSDHLGDLGDPFHLGLENILMEE | 3.06
FPSDHLGDLGDPFHLGLEPILMEE | 3.31
FPSDHLGDLGDPFHLGLEQILMEE | 2.83
FPSDHLGDLGDPFHLGLERILMEE | 2.77
FPSDHLGDLGDPFHLGLESILMEE | 2.69
FPSDHLGDLGDPFHLGLETILMEE | 2.58

Variant | protein stability index
FPSDHLGDLGDPFHLGLEVILMEE | 1.97
FPSDHLGDLGDPFHLGLEWILMEE | 2.16
FPSDHLGDLGDPFHLGLEYILMEE | 1.91
FPSDHLGDLGDPFHLGLEDALMEE | 3.28
FPSDHLGDLGDPFHLGLEDCLMEE | 3.84
FPSDHLGDLGDPFHLGLEDDLMEE | 4.26
FPSDHLGDLGDPFHLGLEDELMEE | 4.2
FPSDHLGDLGDPFHLGLEDFLMEE | 3.82
FPSDHLGDLGDPFHLGLEDGLMEE | 4.16
FPSDHLGDLGDPFHLGLEDHLMEE | 3.92
FPSDHLGDLGDPFHLGLEDKLMEE | 4.05
FPSDHLGDLGDPFHLGLEDLLMEE | 3.91
FPSDHLGDLGDPFHLGLEDMLMEE | 3.63
FPSDHLGDLGDPFHLGLEDNLMEE | 4.29
FPSDHLGDLGDPFHLGLEDPLMEE | 3.77
FPSDHLGDLGDPFHLGLEDQLMEE | 4.37
FPSDHLGDLGDPFHLGLEDRLMEE | 3.5
FPSDHLGDLGDPFHLGLEDSLMEE | 3.7
FPSDHLGDLGDPFHLGLEDTLMEE | 3.97
FPSDHLGDLGDPFHLGLEDVLMEE | 3.48
FPSDHLGDLGDPFHLGLEDWLMEE | 3.5
FPSDHLGDLGDPFHLGLEDYLMEE | 3.88
FPSDHLGDLGDPFHLGLEDIAMEE | 4.03
FPSDHLGDLGDPFHLGLEDICMEE | 3.42

Variant | protein stability index
FPSDHLGDLGDPFHLGLEDIDMEE | 4.26
FPSDHLGDLGDPFHLGLEDIEMEE | 4.28
FPSDHLGDLGDPFHLGLEDIFMEE | 3.28
FPSDHLGDLGDPFHLGLEDIGMEE | 3.88
FPSDHLGDLGDPFHLGLEDIHMEE | 4.08
FPSDHLGDLGDPFHLGLEDIIMEE | 3.32
FPSDHLGDLGDPFHLGLEDIKMEE | 4.06
FPSDHLGDLGDPFHLGLEDIMMEE | 3.38
FPSDHLGDLGDPFHLGLEDINMEE | 3.85
FPSDHLGDLGDPFHLGLEDIPMEE | 4.18
FPSDHLGDLGDPFHLGLEDIQMEE | 3.94
FPSDHLGDLGDPFHLGLEDIRMEE | 3.78
FPSDHLGDLGDPFHLGLEDISMEE | 3.69
FPSDHLGDLGDPFHLGLEDITMEE | 3.93
FPSDHLGDLGDPFHLGLEDIVMEE | 3.4
FPSDHLGDLGDPFHLGLEDIWMEE | 3.14
FPSDHLGDLGDPFHLGLEDIYMEE | 3.31
FPSDHLGDLGDPFHLGLEDILAEE | 3.31
FPSDHLGDLGDPFHLGLEDILCEE | 3.53
FPSDHLGDLGDPFHLGLEDILDEE | 4.26
FPSDHLGDLGDPFHLGLEDILEEE | 4.79
FPSDHLGDLGDPFHLGLEDILFEE | 3.14
FPSDHLGDLGDPFHLGLEDILGEE | 3.64
FPSDHLGDLGDPFHLGLEDILHEE | 3.7

Variant | protein stability index
FPSDHLGDLGDPFHLGLEDILIEE | 3.35
FPSDHLGDLGDPFHLGLEDILKEE | 3.98
FPSDHLGDLGDPFHLGLEDILLEE | 3.24
FPSDHLGDLGDPFHLGLEDILNEE | 4.04
FPSDHLGDLGDPFHLGLEDILPEE | 3.71
FPSDHLGDLGDPFHLGLEDILQEE | 3.75
FPSDHLGDLGDPFHLGLEDILREE | 3.33
FPSDHLGDLGDPFHLGLEDILSEE | 3.87
FPSDHLGDLGDPFHLGLEDILTEE | 3.72
FPSDHLGDLGDPFHLGLEDILVEE | 3.08
FPSDHLGDLGDPFHLGLEDILWEE | 3.16
FPSDHLGDLGDPFHLGLEDILYEE | 3.13
FPSDHLGDLGDPFHLGLEDILMAE | 2.45
FPSDHLGDLGDPFHLGLEDILMCE | 2.03
FPSDHLGDLGDPFHLGLEDILMDE | 2.86
FPSDHLGDLGDPFHLGLEDILMFE | 2.42
FPSDHLGDLGDPFHLGLEDILMGE | 2.47
FPSDHLGDLGDPFHLGLEDILMHE | 2.86
FPSDHLGDLGDPFHLGLEDILMIE | 2.62
FPSDHLGDLGDPFHLGLEDILMKE | 3.34
FPSDHLGDLGDPFHLGLEDILMLE | 2.44
FPSDHLGDLGDPFHLGLEDILMME | 2.33
